Assay results reported in paper PMC9943657, “Structural basis for topological regulation of Tn3 resolvase”.

B1: Tn3 res site III, Form II duplex (dsDNA)
DNA 1: ATTGTCTGATATTCGATTTAAGGTACA
DNA 2: ATTGTACCTTAAATCGAATATCAGACA
B2: Tn3 res site III, Form I duplex (dsDNA)
DNA 1: TCGTGTCTGATATTCGATTTAAGGTACATT
DNA 2: AAATGTACCTTAAATCGAATATCAGACACG

Experiments:
[1] = target: T1, Tn3 resolvase (crystallized) (Tn3 transposon, UniProt P0ADI2 1-185); assay: X-ray crystallography; Form II, ~4.0/4.5/4.0 A, two dimer-DNA complexes per asymmetric unit; Crystal DNA annealed at 1 mM in TE (Tris-HCl pH 8.0, EDTA), 50 mM NaCl; footprinting: synapses crosslinked with glutaraldehyde, DNase I + 10 mM MgCl2; binding buffers and temperature not in material; settings: protein: recombinant; chain copies: 2; label: none for native; 25 bp, 2-nt 5' overhang at each end
[2] = target: T1, Tn3 resolvase (crystallized); assay: X-ray crystallography; Form I, ~3.4 A, one dimer-DNA complex per asymmetric unit; Crystal DNA annealed at 1 mM in TE (Tris-HCl pH 8.0, EDTA), 50 mM NaCl; footprinting: synapses crosslinked with glutaraldehyde, DNase I + 10 mM MgCl2; binding buffers and temperature not in material; settings: protein: recombinant; chain copies: 2; label: none for native; 29 bp, 1-nt 5' overhang at each end

T1 sequence (P0ADI2 whole entry): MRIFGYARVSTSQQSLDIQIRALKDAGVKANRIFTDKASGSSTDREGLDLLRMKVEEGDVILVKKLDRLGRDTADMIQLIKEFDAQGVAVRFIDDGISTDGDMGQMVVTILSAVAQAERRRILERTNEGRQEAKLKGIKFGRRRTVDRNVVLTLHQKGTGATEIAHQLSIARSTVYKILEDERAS

Row | Binder | binding result [1] | binding result [2]
1 | B1 | binds | –
2 | B2 | – | binds
